Literature values as cited in US20070155650A1, “Use of cathepsin z inhibitors for the treatment of rhuematoid arthritis and other autoimmune diseases” (AVENTIS PHARMACEUTICALS INC., priority 2003, published 2007).
Read-outs that look alike come from different tables or passages of the source.

B1: cystatin C: protein inhibitor shown to inhibit Cathepsin Z activity (protein, UniProt P01034 27-146, looked up)
Cystatin-C: SSPGKPPRLVGGPMDASVEEEGVRRALDFAVGEYNKASNDMYHSRALQVVRARKQIVAGVNYFLDVELGRTTCTKTQPNLDNCPFHDQPHLKRKAFCSFQIYAVPWQGTMTLSKSTCQDA
B2: chicken cystatin: protein inhibitor shown to inhibit Cathepsin Z activity (protein, UniProt P01038 24-139, looked up)
Cystatin: SEDRSRLLGAPVPVDENDEGLQRALQFAMAEYNRASNDKYSSRVVRVISAKRQLVSGIKYILQVEIGRTTCPKSSGDLQSCEFHDEPEMAKYTTCTFVVYSIPWLNQIKLLESKCQ
B3: stefin A: protein inhibitor shown to inhibit Cathepsin Z activity (protein, UniProt P01040 1-98, looked up)
Cystatin-A: MIPGGLSEAKPATPEIQEIVDKVKPQLEEKTNETYGKLEAVQYKTQVVAGTNYYIKVRAGDNKYMHLKVFKSLPGQNEDLVLTGYQVDKNKDDELTGF
B4: stefin B: protein inhibitor shown to inhibit Cathepsin Z activity (protein, UniProt P04080 1-98, looked up)
Cystatin-B: MMCGAPSATQPATAETQHIADQVRSQLEEKENKKFPVFKAVSFKSQVVAGTNYFIKVHVGDEDFVHLRVFQSLPHENKPLTLSNYQTNKAKHDELTYF

Columns and labels:
Cathepsin Z = Cathepsin Z (Homo sapiens, UniProt Q9UBR2); conditions: result in words
Cathepsin B = Cathepsin B (Homo sapiens, UniProt P07858); conditions: result in words

Sequence of Cathepsin Z (Q9UBR2 62-303): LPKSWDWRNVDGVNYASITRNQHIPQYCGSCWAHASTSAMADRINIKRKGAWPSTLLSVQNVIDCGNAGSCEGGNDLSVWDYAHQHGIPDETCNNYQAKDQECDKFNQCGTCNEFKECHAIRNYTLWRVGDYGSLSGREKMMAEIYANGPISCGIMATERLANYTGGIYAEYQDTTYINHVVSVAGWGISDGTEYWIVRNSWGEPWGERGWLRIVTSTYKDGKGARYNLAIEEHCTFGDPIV

Row | Molecule | Cathepsin Z activity inhibited or not (Cathepsin Z) | Cathepsin B activity inhibited (Cathepsin B) | Cathepsin B activity inhibited (Cathepsin B; listed as CA-704)
1 | CCCNC(=O)[C@H]1O[C@@H]1C(=O)N[C@H](C(=O)N1CCC[C@H]1C(=O)O)[C@@H](C)CC [CA-074] | inhibited | block Cathepsin B activity | known synthetic inhibitors of Cathepsin B
2 | B1 | inhibited |  | 
3 | B2 | inhibited |  | 
4 | B3 | inhibited |  | 
5 | B4 | inhibited |  | 
